Laboratory results reported in patent US9696316B2, “Conformationally dynamic peptides” (SYSTEM OF SYSTEMS ANALYTICS, INC., priority 2009, dated 2017).
“Also recorded” adds a separate entry of the source.

Columns and labels:
Type in all cases: binding
[1] = target: biotinylated Aβ42 oligomers (Homo sapiens, UniProt P05067); assay: In vitro affinity chromatography-based interaction assay (streptavidin beads); details: 4 μM probe
Protocol: In this assay, soluble peptide probes are combined with, for example, soluble target protein oligomers in an in vitro affinity chromatography-based interaction assay. For this example, target protein is labeled with an affinity molecule, such as biotin, and incubated with a labeled peptide probe. After incubation, the mixture is incubated with the capture moiety, such as streptavidin, on a support, for example a column or beads, such that the target protein is captured. After washing of unbound material, the support can be examined for detection of the labeled peptide probe, which would indicate the presence of bound target protein-peptide probe complexes on the support. Alternatively, the bound material may be eluted and then examined for detection of the labeled peptide probe. Again, detection of the labeled peptide probe would indicate the presence of target protein-peptide probe complexes in the eluant. FIGS. 5A and 15A illustrate an affinity chromatography assay using biotin-labeled target protein and streptavidin-coated beads. This type of assay is useful, for example, for assessing the efficacy of a given peptide probe. […] The beads are washed with PBS to remove unbound material and the captured material is analyzed by SDS-PAGE. […] […]

[2] = test system: fibrillar amyloid target protein; assay: Signal gain on conformational change in the presence of fibrillar amyloid
Protocol: Peptide Probe 22 (SEQ ID NO:2, 2 μM) labeled at each terminus with pyrene is incubated in 0 to 80% TFE in tris buffer (10 mM Tris, pH 7.0) for 30 min. The reaction is measured by TECAN fluorimeter, and the excimer:monomer fluorescence ratio is recorded. […] When tested for the ability to undergo conformational change in the presence of a fibrillar amyloid target protein, Peptide 22 performs 2.6 times greater than the reference peptide (SEQ ID NO:1).

Aβ42 oligomer [3] = target: T1, Aβ42 oligomer (Homo sapiens, UniProt P05067); assay: CD analysis of peptide probe with target protein; details: 10 mM sodium phosphate pH 7.0, 3 hours
Text: The conformation of the peptide probe bound to the target protein can be assessed by CD analysis. […] The peptide alone is highly alpha helical (36%). Upon mixing of Peptide 38 with the target protein, the peptide undergoes a conformation shift that results in increased β-sheet conformation, and decreased α helix conformation. That is, the secondary structure of Peptide 38 is altered such that the proportion of a helix is halved (18%), while the proportion of β-sheet structure is enhanced from 20% to 31%. […] Circular dichroism (CD) analysis is used to determine the secondary structure of Peptide 22, synthetic Aβ42 oligomer, and a mixture thereof. Samples are incubated in 10 mM sodium phosphate (pH 7.0) for 3 hours at room temperature before measuring CD. For each sample, the relative ellipticity is evaluated from 190-260 nm. […] Each data set represents the average of three separate spectral scans.

Aβ42 oligomer [4] = target: T1, Aβ42 oligomer; assay: Aqueous Aβ oligomer assay, pyrene fluorescence
Text: The conformation of peptide probe bound to the target protein can also be detected by measuring pyrene fluorescence, on the peptide alone and in combination with the target protein. […] The excimer fluorescence associated with the β-sheet conformation has a different wavelength than the monomer fluorescence associated with the alpha-helix conformation, and the excimer:monomer fluorescence ratio is 9:1. […] The addition of Aβ42 oligomer target protein results in a dose-dependent shift of the excimer:monomer fluorescence ratio to 20:1 at the highest Aβ42 oligomer concentration (0.3 μM). This change in excimer:monomer fluorescence ratio reflects a corresponding conformational change in the peptide, that results in increased β-sheet conformation, and decreased α helix conformation.
An Aβ oligomer assay may be conducted in an aqueous solvent, such as water. […] Upon introduction of Aβ oligomer, the fluorescence profile shifts to primarily self-fluorescence (monomeric) (see FIG. 11), which is associated with reduced β-sheet structure, or increased alpha helix structure.
As discussed above, Peptide 22 (SEQ ID NO: 2) undergoes a conformational change upon interaction with Aβ oligomer. FIG. 11 illustrates the fluorescence spectra for Peptide 22 labeled at each terminus with pyrene and incubated in aqueous conditions for several hours at room temperature in 10 mM Hepes (pH 7.0). […] (solid line=Time 0; dashed line=3 hours; dotted line=18 hours).
(§1) Peptide 22 (100 nM) is incubated in water for 15 hours at room temperature with equimolar concentrations ([…]) of several potential Aβ substrates: Aβ42 oligomer (type 1); Aβ42 oligomer (type 2); Aβ1-42 monomer; Aβ1-40 monomer; Aβ1-42 fiber; Aβ1-40 fiber; bovine serum albumin (control substrate); and carbonic anhydrase (control substrate).
With reference to FIG. 13A, Peptide 22 (70 nM) is incubated with […] synthetic Aβ42 oligomer at 25 C, and fluorescence emission spectra is recorded after 3 hours incubation. […] (solid line—no Aβ42 oligomer; dashed/dot line—30 nN Aβ42 oligomer; large dashed line—100 nN Aβ42 oligomer; small dashed line—300 nN Aβ42 oligomer)

Aβ1-40 fiber = target: T2, Aβ1-40 fiber (Homo sapiens, UniProt P05067); assay: Specificity assay, pyrene fluorescence; details: 100 nM peptide, water, 15 hours, 0-300 nN substrate
T2 construct: Aβ1-42 monomer; Aβ1-40 monomer; Aβ1-42 fiber; Aβ1-40 fiber
Protocol: as §1

Aβ1-40 monomer = target: T3, Aβ1-40 monomer (Homo sapiens, UniProt P05067); assay: Specificity assay, pyrene fluorescence; details: 100 nM peptide, water, 15 hours, 0-300 nN substrate
T3 construct: Aβ1-42 monomer; Aβ1-40 monomer; Aβ1-42 fiber; Aβ1-40 fiber
Protocol: as §1

Aβ1-42 fiber = target: T4, Aβ1-42 fiber (Homo sapiens, UniProt P05067); assay: Specificity assay, pyrene fluorescence; details: 100 nM peptide, water, 15 hours, 0-300 nN substrate
T4 construct: Aβ1-42 monomer; Aβ1-40 monomer; Aβ1-42 fiber; Aβ1-40 fiber
Protocol: as §1

Aβ1-42 monomer = target: T5, Aβ1-42 monomer (Homo sapiens, UniProt P05067); assay: Specificity assay, pyrene fluorescence; details: 100 nM peptide, water, 15 hours, 0-300 nN substrate
T5 construct: Aβ1-42 monomer; Aβ1-40 monomer; Aβ1-42 fiber; Aβ1-40 fiber
Protocol: as §1

bovine serum albumin = bovine serum albumin (Bos taurus, UniProt P02769); assay: Specificity assay, pyrene fluorescence (control substrate); details: 100 nM peptide, water, 15 hours, 0-300 nN substrate
Protocol: as §1

carbonic anhydrase = assay: as above; details: 100 nM peptide, water, 15 hours, 0-300 nN substrate
Protocol: as §1

T1 sequence (P05067 672-713 limits assumed): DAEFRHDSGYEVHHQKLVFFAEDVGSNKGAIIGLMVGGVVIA
T5 sequence (P05067 672-713 limits assumed): as above
T2 sequence (P05067 672-711 limits assumed): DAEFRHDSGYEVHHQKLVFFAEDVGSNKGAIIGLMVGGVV
T4 sequence (P05067 672-713 limits assumed): as the sequence (P05067 672-713 limits assumed) above
Sequence of biotinylated Aβ42 oligomers (P05067 672-713 limits assumed): as above
Sequence of bovine serum albumin (P02769 25-607): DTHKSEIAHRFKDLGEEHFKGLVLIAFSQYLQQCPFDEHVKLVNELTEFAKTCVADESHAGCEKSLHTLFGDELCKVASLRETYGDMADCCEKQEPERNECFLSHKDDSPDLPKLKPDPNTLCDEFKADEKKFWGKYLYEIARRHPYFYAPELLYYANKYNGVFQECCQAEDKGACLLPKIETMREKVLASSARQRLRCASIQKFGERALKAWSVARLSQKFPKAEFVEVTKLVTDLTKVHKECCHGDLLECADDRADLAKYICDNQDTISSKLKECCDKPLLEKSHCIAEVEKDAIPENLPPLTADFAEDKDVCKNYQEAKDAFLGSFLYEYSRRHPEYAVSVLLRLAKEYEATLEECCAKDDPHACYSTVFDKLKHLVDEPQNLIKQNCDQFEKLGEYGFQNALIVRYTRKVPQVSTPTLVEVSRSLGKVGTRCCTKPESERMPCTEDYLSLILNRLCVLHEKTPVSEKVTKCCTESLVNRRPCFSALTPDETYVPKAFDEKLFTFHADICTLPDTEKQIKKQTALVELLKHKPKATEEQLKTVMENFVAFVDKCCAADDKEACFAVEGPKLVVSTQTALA
T3 sequence (P05067 672-711 limits assumed): as the sequence (P05067 672-711 limits assumed) above

KLVFFAEDVGSNKHAIIELMK (KLVFFAEDVGSNKHAIIELMK) [Peptide 22, Salt bridge at G29H and G33E]
capture of labeled peptide probe with biotinylated Aβ42 oligomer on streptavidin beads (SDS-PAGE) [1]: directly binds to biotinylated Aβ42 oligomer | maximal signal gain in the presence of fibrillar amyloid target protein relative to the reference peptide (SEQ ID NO:1) [2]: about 2.6 times | β sheet secondary structure (CD) (Aβ42 oligomer [3]; 4 μM peptide alone, room temperature): 36% | β sheet secondary structure (CD) (Aβ42 oligomer [3]; 4 μM peptide incubated with 33 nM synthetic Aβ42 oligomer): 43% | pyrene monomer (self) fluorescence (370-420 nm) versus Aβ42 oligomer concentration (Aβ42 oligomer [4]; 70 nM peptide, 0, 30, 100, 300 nM synthetic Aβ42 oligomer, 25 C, 3 hours (FIG. 13A)): increases with Aβ42 oligomer concentration in a dose-dependent manner | fluorescence over time in the absence of oligomer (Aβ42 oligomer [4]; 10 mM Hepes pH 7.0, room temperature, 0, 3, 18 hours (FIG. 11)): stable over time | reactivity with Aβ42 oligomers (transition from pyrene excimer fluorescence to pyrene self-fluorescence) (Aβ42 oligomer [4]; aqueous assay): react with Aβ42 oligomers | preferential binding by state of self-aggregation of Aβ protein (Aβ42 oligomer [4]; versus monomers, fibers and control proteins): preferentially binds to Aβ protein in the form of soluble Aβ oligomers | fluorescence response to Aβ40 fibers (Aβ1-40 fiber): no change in fluorescence; also recorded: slight fluorescence response | fluorescence response to Aβ40 monomer (Aβ1-40 monomer): no change in fluorescence | fluorescence response to Aβ42 fibers (Aβ1-42 fiber): some dose-dependent increase in monomer fluorescence | fluorescence response to Aβ42 monomer (Aβ1-42 monomer): no change in fluorescence; also recorded: slight fluorescence response | fluorescence response to BSA control (bovine serum albumin): no change in fluorescence | fluorescence response to Anhydrase control (carbonic anhydrase): no change in fluorescence
